The text below walks through data of US20110046355A1 (F STAR BIOTECHNOLOGISCHE FORSCHUNGS UND ENTWICKLUNGSGES M B …, published 2011).

Substitutions are numbered along the chain they refer to.

Experiment [1] has as its target T1, Human soluble Her-2 (Bender Med Systems, Austria) (human, UniProt P04626 23-652, biotinylated (sulfo-LC-LC-biotin) when used for yeast FACS staining; unlabelled in ELISA and SPR).
T1 construct: extracellular domain; given only as 'human soluble Her-2'; also called recombinant antigen Her2 (Bendermedsystems); Her2-biotin
The experiment in a line: ELISA, human soluble Her-2 coated at 2 ug/ml, Fcab titrated, anti-Fc CH2-HRP detection. As to the method:
Human soluble Her-2 (Bender Med Systems, Austria) was coated to plastic at 2 μg/ml. After washing and blocking unspecific binding sites, increasing concentrations of Fcabs were added. To detect Her-2 bound Fcabs, anti-Fc CH2 domain specific monoclonal antibodies which were conjugated to horse radish peroxidase (Serotec) were added.
Background: An ELISA detects its analyte on a solid surface through an enzyme-linked reagent.

In experiment [2] the target is T1, Human soluble Her-2 (Bender Med …). Briefly: SPR, Biacore CM5 chip coated with human soluble Her-2, Fcab as analyte, BiaEval fit. As to the method:
(§1) Antigen binding was also determined by SPR. Biacore CM5 chips were coated with different amounts of human soluble Her-2 followed by addition of increasing concentrations of Fcabs. The affinity (KD) of the Fcabs was calculated from the resulting binding curves after fitting using the software BiaEval. […] Antigen binding was also assessed by FACS using the Her-2 over-expressing human breast cancer cell lines SKBR3 and Calu-3. 1×10⁵ cells were incubated with increasing concentrations of Fcabs for 60 minutes on ice. Then, unbound antibodies were removed by centrifugation and washing. Cell bound Fcabs were detected by incubation with anti-human Fc specific antibodies conjugated to phycoerythrin (Sigma) for 60 minutes on ice. After washing the cells, the intensity of fluorescence on the cell surface was measured in a FACS Calibur instrument (Beckton Dickinson).
For orientation: SPR reads the build-up and loss of mass on a sensor chip optically.

For experiment [3], the target named is T2, Fcab wt (non-randomized Fc fragment) expressed on yeast (human, UniProt P0DOX5 218-449 = IgG part).
T2 construct: also called Fcab-wt expressing cells; not shown: N-terminal Aga2 display fusion (and CH1 in vector pYD1dXFc)
The experiment in a line: FACS of yeast-displayed Fcab wt, CD64 staining.

The next experiment deals with T3, wild type Fcab (human, UniProt P0DOX5 218-449 = IgG part, limits assumed).
T3 construct: also called Fcab wt; wtFcab
Briefly: SPR, Fcab (10 ug/ml) captured on Protein A chip (3000 RU), human soluble CD64 at 5 ug/ml as analyte. The method, then:
Association with the neonatal Fc receptor (FcRn) was measured by adding 10 μg/ml Fcab to a Biacore CM5 chip coupled to 5000 response units (RU) of recombinant human FcRn at pH=6.0. The dissociation of Fcab from FcRn was tested at pH=7.4. […] Finally, human soluble CD64 at 5 μg/ml was added.

Experiment [4] addresses T4, Her-2 on Her-2 over-expressing human breast cancer cell lines SKBR3 and Calu-3 (human, UniProt P04626 23-1255).
T4 construct: whole, on cells; also called SKBR3 cells; Calu-3 cells
Briefly: FACS on Her-2 over-expressing SKBR3 cells, anti-human Fc-PE detection. As to the method:
as §1

In experiment [5] the target is T4, Her-2 on Her-2 over-expressing human …. Briefly: cell-based or functional assay.
The target of experiment [6] is T1, Human soluble Her-2 (Bender Med …). Briefly: assay not stated; told in the yeast display FACS selection and affinity maturation section (biotinylated Her2).

B1: H561G3M1G4 (designed binder)
chain: EPKSCDKTHTCPPCPAPELLGGPSVFLFPPKPKDTLMISRTPEVTCVVVDVSHEDPEVKFNWYVDGVEVHNAKTKPREEQYNSTYRVVSVLTVLHQDWLNGKEYKCKVSNKALPAPIEKTISKAKGQPREPQVYTLPPSRDEFFTYWVSLTCLVKGFYPSDIAVEWESNGQPENNYKTTPPVLDSDGSFFLYSKLTVDRRRWTAGNVFSCSVMHEALHNHYTQKSLSLSPGK
One may read the EC50 as the concentration giving half of the maximal effect. Low readings indicate higher potency in that assay, high ones lower potency in that assay. Broadly, the Kd is the constant that tells how readily two partners part at equilibrium. Take B1: the EC50 in experiment [1] was determined as 263 nM. The Kd in experiment [2] came to 7.5 nM.

B2: human soluble CD64 (receptor, UniProt P12314 16-292, looked up)
chain: QVDTTKAVITLQPPWVSVFQEETVTLHCEVLHLPGSSSTQWFLNGTATQTSTPSYRITSASVNDSGEYRCQRGLSGRSDPIQLEIHRGWLLLQVSSRVFTEGEPLALRCHAWKDKLVYNVLYYRNGKAFKFFHWNSNLTILKTNISHNGTYHCSGMGKHRYTSAGISVTVKELFPAPVLNASVTSPLLEGNLVTLSCETKLLLQRPGLQLYFSFYMGSKTLRGRNTSSEYQILTARREDSGLYWCEAATEDGNVLKRSPELELQVLGLQLPTPVWFH
notes: extracellular domain; Printed as 'human soluble CD64'; also called human CD64 (R&D Systems)
B2: the binding result (in experiment [3]; with wild type Fcab) was “binds” each time.

B3: y-Her.C2.P4.2-9 (designed binder)
chain: EPKSCDKTHTCPPCPAPELLGGPSVFLFPPKPKDTLMISRTPEVTCVVVDVSHEDPEVKFNWYVDGVEVHNAKTKPREEQYNSTYRVVSVLTVLHQDWLNGKEYKCKVSNKALPAPIEKTISKAKGQPREPQVYTLPPSRDEYLHGDVSLTCLVKGFYPSDIAVEWESNGQPENNYKTTPPVLDSDGSFFLYSKLTVARYSPRMLRWAHGNVFSCSVMHEALHNHYTQKSLSLSPGK
For the molecule B3, the EC50 in experiment [1] is 4.3 nM. That is a single-digit nanomolar value.

B4: EF3-17 (designed binder)
chain: B3 chain with Y200H, P202R, R203T, L205W, A208G
For B4, the figures for the EC50 in experiment [1] and in experiment [4] were 4.7 nM and 1.3 nM, respectively.

B5: ABEFs0101 (designed binder)
chain: B3 chain with H145S, G146A, R203S, L205W, A208G
notes: If read literally (148-197) a Val would be doubled
B5: the “ADCC: SKBR3 cell killing by NK cells (7-AAD/CFSE double positive cells), EC50” value in experiment [5] was 1 nM. Also, the EC50 stood at 16.1 nM in experiment [1] and 5.2 nM in experiment [4].

B6: y-Her.C2.P4.2-19 (designed binder)
chain: B3 chain with L144R, H145S, D147E
For the molecule B6, the EC50 in experiment [1] was determined as 93 nM. That is a double-digit nanomolar value.

B7: y-Her.C2.P4.2-4 (designed binder)
chain: B3 chain with L144S, H145D
In turn, B7 returned an EC50 in experiment [1] of 370 nM.

B8: y-Her.C2.P4.2-3 (designed binder)
chain: B3 chain with L144A, H145S, G146N, D147T
B8 displayed an EC50 in experiment [1] of 463 nM.

B9: H10-03-6 (designed binder)
chain: B3 chain with H145Y, A198P, Y200H, P202A, L205W
notes: also called H10-03-6 clone
For the molecule B9, the “ADCC: SKBR3 cell killing by NK cells (7-AAD/CFSE double positive cells), EC50” value in experiment [5] was 1.1 nM. Further, the EC50 in experiment [6] worked out at 18.9 nM; in experiment [1] it was 4.8 nM; in experiment [4], 10.3 nM. Besides, binding in experiment [2] was characterised by a dissociation constant (Kd) of 8.6 nM.
